Data published in patent US20250230251A1 (Bristol-Myers Squibb, published 2025).

Experiments:
[1] = biological target: T1, huIL-18Rβ-HisAvi (human, UniProt O95256 20-356, biotinylated in the Octet blocking assay); test: SPR T200, mAb on anti-hFc, 37C, pH 7.4
T1 construct: Soluble analyte in all SPR runs; captured on streptavidin sensors in the Octet assay; also called human IL-18Rβ; human IL-18Rβ-Avi-His
T1 sequence: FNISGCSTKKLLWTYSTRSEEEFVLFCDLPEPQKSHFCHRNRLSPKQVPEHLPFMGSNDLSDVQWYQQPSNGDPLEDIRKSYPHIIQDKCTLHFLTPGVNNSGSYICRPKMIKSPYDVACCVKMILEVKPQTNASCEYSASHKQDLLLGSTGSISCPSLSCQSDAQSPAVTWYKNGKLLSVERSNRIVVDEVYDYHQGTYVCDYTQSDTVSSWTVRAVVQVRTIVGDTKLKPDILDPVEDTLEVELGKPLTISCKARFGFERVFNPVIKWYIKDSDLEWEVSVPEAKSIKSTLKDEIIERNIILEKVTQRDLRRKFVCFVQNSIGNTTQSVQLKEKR

[2] = biological target: T2, cyIL-18Rβ-HisAvi (cynomolgus monkey); test: SPR T200, mAb on anti-hFc, 37C, pH 7.4
T2 construct: Soluble analyte in SPR; also called cyno IL-18Rβ; cynomolgus monkey IL-18Rβ
T2 chain: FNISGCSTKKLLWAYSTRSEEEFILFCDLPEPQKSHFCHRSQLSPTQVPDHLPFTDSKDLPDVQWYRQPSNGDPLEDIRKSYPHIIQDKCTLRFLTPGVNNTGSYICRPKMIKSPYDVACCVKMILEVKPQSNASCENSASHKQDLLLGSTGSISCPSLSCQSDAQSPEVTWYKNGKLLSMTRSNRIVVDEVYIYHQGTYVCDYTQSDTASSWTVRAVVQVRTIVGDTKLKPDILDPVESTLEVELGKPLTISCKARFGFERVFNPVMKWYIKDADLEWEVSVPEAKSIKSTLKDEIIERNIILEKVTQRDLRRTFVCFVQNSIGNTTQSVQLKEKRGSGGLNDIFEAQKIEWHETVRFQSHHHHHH

[3] = biological target: T1, huIL-18Rβ-HisAvi; test: SPR T200, pH 7; sample 4 w 40C
[4] = biological target: T3, human IL-18Rβ on cells (human, UniProt O95256 20-599); test: cell-based or functional assay
T3 sequence: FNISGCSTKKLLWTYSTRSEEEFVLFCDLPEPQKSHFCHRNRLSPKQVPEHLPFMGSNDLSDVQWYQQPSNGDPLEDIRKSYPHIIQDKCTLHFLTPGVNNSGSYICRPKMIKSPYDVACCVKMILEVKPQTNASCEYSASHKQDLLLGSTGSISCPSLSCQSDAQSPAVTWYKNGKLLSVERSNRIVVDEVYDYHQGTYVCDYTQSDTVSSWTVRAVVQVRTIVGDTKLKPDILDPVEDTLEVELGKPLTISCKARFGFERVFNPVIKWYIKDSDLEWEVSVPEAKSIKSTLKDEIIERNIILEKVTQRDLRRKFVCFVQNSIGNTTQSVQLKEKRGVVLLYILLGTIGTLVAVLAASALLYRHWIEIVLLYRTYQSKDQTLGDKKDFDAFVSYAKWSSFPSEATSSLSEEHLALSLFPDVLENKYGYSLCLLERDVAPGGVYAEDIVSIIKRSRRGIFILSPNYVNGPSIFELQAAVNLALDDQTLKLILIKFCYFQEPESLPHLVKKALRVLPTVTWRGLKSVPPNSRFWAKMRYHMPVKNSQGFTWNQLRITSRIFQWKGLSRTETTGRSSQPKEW

[5] = biological target: T1, huIL-18Rβ-HisAvi; test: SPR T200, pH 7; sample T0
[6] = biological target: T1, huIL-18Rβ-HisAvi; test: SPR T200, pH 7; sample 2 w 40C
[7] = biological target: T1, huIL-18Rβ-HisAvi; test: SPR T200, mAb on anti-hFc, 37C, pH 6
[8] = biological target: T2, cyIL-18Rβ-HisAvi; test: SPR T200, mAb on anti-hFc, 37C, pH 6
[9] = biological target: T1, huIL-18Rβ-HisAvi; test: SPR T200, pH 7; sample 4 w 4C

B1: P21-V1 (antibody, human IgG1, kappa, V domains shown)
VH: QVQLQESGPGLVKPSETLSLTCTVSGGSISNYYWTWIRQPPGKGLEWIGYISDSGSTNYNPSLKSRVTISVDTSKNQFSLKLSSVTAADTAVYYCARETIVVRGFYFYVMDVWGQGTTVTVSS
VL: AIQLTQSPSSLSASVGDRVTITCRASQGISSALAWYQQKPGKAPKLLIYEASNWESGVPSRFSGSGSGTDFTLTISSLQPEDFATYYCQQFNSYPWTFGQGTKVEIKR
notes: Variant of P21
B1 gave a Kd [1] of 0.63 nM, a koff [1] of 0.00022 s⁻¹ and a kon [1] of 360000 M⁻¹ s⁻¹. The Kd [2] was 8.7 nM, the koff [2] was 0.0047 s⁻¹ and the kon [2] was 540000 M⁻¹ s⁻¹. The Kd [3] was 0.51 nM, the koff [3] was 0.00014 s⁻¹ and the kon [3] was 280000 M⁻¹ s⁻¹. For the same binder, the “Average IC50, LPS+IL-12 dependent IFNg production, human whole blood” value [4] was 1.23 nM, the Kd [5] was 0.26 nM and the koff [5] was 7.2e-05 s⁻¹. For the same binder, the kon [5] was 270000 M⁻¹ s⁻¹, the Kd [6] was 0.18 nM and the koff [6] was 4.9e-05 s⁻¹. For the same binder, the kon [6] was 270000 M⁻¹ s⁻¹, the Kd [7] was 0.37 nM and the koff [7] was 0.00017 s⁻¹. For the same binder, the kon [7] was 460000 M⁻¹ s⁻¹, the Kd [8] was 13 nM and the koff [8] was 0.0031 s⁻¹. The kon [8] was 250000 M⁻¹ s⁻¹, the Kd [9] was 0.24 nM and the koff [9] was 6.5e-05 s⁻¹. It also gave a kon [9] of 270000 M⁻¹ s⁻¹.
